Source: patent publication US20090221680, “Aptamers that bind thrombin with high affinity” (published 2009)

Biological target: thrombin (alpha-thrombin) (Homo sapiens, UniProt P00734;P00734 P00734:315-363,P00734:364-622)
Experiment: filter

| Binder | Kd [nM] |
| --- | --- |
| UGCCUAGGTTGGGTAGGGTGGUGGCA (XNA, 2'-OMe 1-5,22,23,25,26, rest DNA) [ARC2837] | 2.61 |
| GCTGCCTAGGTTGGGTAGGGTGGTGGCAGC (ssDNA) [ARC2170] | 0.19 |
| UGCCTAGGTTGGGTAGGGTGGTGGCA (XNA, 2'-OMe 1-3,25,26, rest DNA) [ARC2839] | 0.58 |
| ACTGCCTAGGTTGGGTAGGGTGGTGGCAGT (ssDNA, PS linkage between nt 17 and 18) [ARC2660] | 0.23 |
| ACTGCCTAGGTTGGGTAGGGTGGTGGCAGT (XNA, 2'-OMe G26, rest DNA) [ARC2638] | 0.192 |
| ACTGCCTAGGTTGGGTAGGGTGGTGGCAGT (XNA, 2'-OMe G9, rest DNA) [ARC2621] | 1.52 |
| GCCTAGGTTGGGTAGGGTGGTGGC (XNA, 2'-OMe 1-3,22,24, rest DNA) [ARC2845] | 0.86 |
| GAUTAGGTTGGGTAGGGTGGTAUC (XNA, 2'-OMe 1-3,22-24, rest DNA) [ARC2849] | 0.2 |
| UGAUTAGGTTGGGTAGGGTGGTAUCA (XNA, 2'-OMe 1-4,23-26, rest DNA) [ARC2842] | 1.06 |
| ACTGCCTAGGTTGGGTAGGGTGGUGGCAGT (XNA, 2'-OMe U24, rest DNA) [ARC2636] | 0.102 |
| ACTGCCTAGGTTGGGTAGGGTGGTGGCAGT (ssDNA, PS between G23 and T24) [ARC2666] | 0.992 |
| UGATTAGGTTGGGTAGGGTGGTAUCA (XNA, 2'-OMe 1-3,24-26, rest DNA) [ARC2843] | 0.62 |
| ACUGCCTAGGTTGGGTAGGGTGGTGGCAGT (XNA, 2'-OMe U3, rest DNA) [ARC2615] | 0.094 |
| AUGAUTAGGTTGGGTAGGGTGGTAUCAU (XNA, 2'-OMe 1-5,24-28, rest DNA) [ARC2835] | 1.27 |
| UGCCTAGGTTGGGTAGGGTGGTGGCA (XNA, 2'-OMe 1-4,23,25,26, rest DNA) [ARC2838] | 0.77 |
| ACTGCCTAGGTTGGGTAGGGTGGTGGCAGT (XNA, 2'-OMe G25, rest DNA) [ARC2637] | 0.118 |
| ACTGCCTAGGTTGGGTAGGGTGGTGGCAGT (XNA, 2'-OMe G29, rest DNA) [ARC2641] | 0.171 |
| AAUGATTAGGTTGGGTAGGGTGGTAUCAUU (XNA, 2'-OMe 1-5,26-30, rest DNA) [ARC2829] | 0.93 |
| ATGATTAGGTTGGGTAGGGTGGTATCAT (ssDNA) [ARC2833] | 2.16 |
| AUGATTAGGTTGGGTAGGGTGGTAUCAU (XNA, 2'-OMe 1-4,25-28, rest DNA) [ARC2836] | 0.96 |
| ACTGCCTAGGTTGGGTAGGGTGGTGGCAGT (ssDNA, PS linkage between nt 13 and 14) [ARC2656] | 0.151 |
| CUGCCTAGGTTGGGTAGGGTGGTGGCAG (XNA, 2'-OMe 1-5,24,26-28, rest DNA) [ARC2831] | 5.12 |

| Binder | Kd [nM] |
| --- | --- |
| AUGAUUAGGTTGGGTAGGGTGGUAUCAU (XNA, 2'-OMe 1-6,23-28, rest DNA) [ARC2834] | 10.3 |
| ACTGCCTAGGTTGGGTAGGGTGGTGGCAGT (ssDNA, PS linkage between nt 15 and 16) [ARC2658] | 0.253 |
| AATGATTAGGTTGGGTAGGGTGGTATCATT (ssDNA) [ARC2826] | 0.77 |
| CUGCCUAGGTTGGGTAGGGTGGUGGCAG (XNA, 2'-OMe 1-6,23,24,26-28, rest DNA) [ARC2830] | 15.3 |
| ACTGCCTAGGTTGGGTAGGGTGGTGGCAGT (XNA, 2'-OMe G13, rest DNA) [ARC2625] | 0.568 |
| ACTGCCTAGGTTGGGUAGGGTGGTGGCAGT (XNA, 2'-OMe U16, rest DNA) [ARC2628] | 0.207 |
| ACTGCCTAGGTTGGGTAGGGTGGTGGCAGT (ssDNA, PS linkage between nt 2 and 3) [ARC2645] | 0.167 |
| ACTGCCTAGGTTGGGTAGGGTGGTGGCAGT (XNA, 2'-OMe G14, rest DNA) [ARC2626] | 1.59 |
| ACTGCCTAGGTTGGGTAGGGTGGTGGCAGT (XNA, 2'-OMe C27, rest DNA) [ARC2639] | 0.08 |
| UGAUUAGGTTGGGTAGGGTGGUAUCA (XNA, 2'-OMe 1-5,22-26, rest DNA) [ARC2841] | 3.55 |
| ACTGCCTAGGTTGGGTAGGGTGGTGGCAGT (XNA, 2'-OMe G10, rest DNA) [ARC2622] | 0.038 |
| ACTGCCTAGGTTGGGTAGGGTGGTGGCAGT (XNA, 2'-OMe G18, rest DNA) [ARC2630] | 5.24 |
| TGATTAGGTTGGGTAGGGTGGTATCA (ssDNA) [ARC2840] | 0.25 |
| ACTGCCTAGGTTGGGTAGGGTGGTGGCAGT (XNA, 2'-OMe G23, rest DNA) [ARC2635] | 0.248 |
| GCCTAGGTTGGGTAGGGTGGTGGC (XNA, 2'-OMe 1-2,24, rest DNA) [ARC2846] | 0.27 |
| ACTGCCUAGGTTGGGTAGGGTGGTGGCAGT (XNA, 2'-OMe U7, rest DNA) [ARC2619] | 0.215 |
| ACTGCCTAGGTTGGGTAGGGTGGTGGCAGT (XNA, 2'-OMe A8, rest DNA) [ARC2620] | 7.1 |
| GAUUAGGTTGGGTAGGGTGGUAUC (XNA, 2'-OMe 1-4,21-24, rest DNA) [ARC2848] | 2.09 |
| ACTGCCTAGGTTGGGTAGGGTGGTGGCAGT (XNA, 2'-OMe A28, rest DNA) [ARC2640] | 0.174 |
| CUGCCTAGGTTGGGTAGGGTGGTGGCAG (XNA, 2'-OMe 1-4,26-28, rest DNA) [ARC2832] | 1.88 |
| ACTGCCTAGGTTGGGTAGGGTGGTGGCAGU (XNA, 2'-OMe U30, rest DNA) [ARC2642] | 0.094 |
| AAUGAUUAGGTTGGGTAGGGTGGUAUCAUU (XNA, 2'-OMe 1-7,24-30, rest DNA) [ARC2827] | 4.06 |

| Binder | Kd [nM] |
| --- | --- |
| ACTGCCTAGGTTGGGTAGGGTGGTGGCAGT (XNA, 2'-OMe C6, rest DNA) [ARC2618] | 0.121 |
| ACTGCCTAGGTTGGGTAGGGTGGTGGCAGT (ssDNA, PS between T16 and A17) [ARC2659] | 0.452 |
| CCTCAGGGATGGTGTGGGTGGCTGAGG (ssDNA) [ARC1985] | 5.7 |
| ACTGCCTAGGTTGGGTAGGGTGGTGGCAGT (XNA, 2'-OMe G22, rest DNA) [ARC2634] | 0.549 |
| ACUGCCTAGGTTGGGTAGGGTGGTGGCAGU (XNA, 2'-OMe 1-6,25,27-30, rest DNA) [ARC2824] | 0.73 |
| GATTAGGTTGGGTAGGGTGGTAUC (XNA, 2'-OMe 1-2,23-24, rest DNA) [ARC2850] | 0.33 |
| ACTGCCTAGGTTGGGTAGGGTGGTGGCAGT (XNA, 2'-OMe A1, rest DNA) [ARC2613] | 0.173 |
| ACTGCCTAGGTTGGGTAGGGTGGTGGCAGT (XNA, 2'-OMe G4, rest DNA) [ARC2616] | 0.091 |
| ACTGCCTAGGTTGGGTAGGGTGGTGGCAGT (ssDNA, PS between T12 and G13) [ARC2655] | 0.079 |
| GCCUAGGTTGGGTAGGGTGGUGGC (XNA, 2'-OMe 1-4,21,22,24, rest DNA) [ARC2844] | 2.65 |
| ACTGCCTAGGTTGGGTAGGGTGGTGGCAGT (XNA, 2'-OMe C2, rest DNA) [ARC2614] | 0.052 |
| ACTGCCTAGGUTGGGTAGGGTGGTGGCAGT (XNA, 2'-OMe U11, rest DNA) [ARC2623] | 0.746 |
| CTGCCTAGGTTGGGTAGGGTGGTGGCAG (ssDNA) [ARC2171] | 0.221 |
| ACTGCCTAGGTTGGGTAGGGTGGTGGCAGT (ssDNA, PS between G10 and T11) [ARC2653] | 0.066 |
| ACUGCCTAGGTTGGGTAGGGTGGTGGCAGU (XNA, 2'-OMe 1-5,27-30, rest DNA) [ARC2825] | 1.03 |
| ACTGCCTAGGTTGGGTAGGGTGGTGGCAGT (XNA, 2'-OMe G19, rest DNA) [ARC2631] | 4.96 |
| ACTGCCTAGGTTGGGTAGGGTGGTGGCAGT (ssDNA, PS linkage between nt 18 and 19) [ARC2661] | 0.246 |
| GATTAGGTTGGGTAGGGTGGTATC (ssDNA) [ARC2847] | 0.21 |
| ACTGCCTAGGTTGGGTAGGGTGGTGGCAGT (ssDNA, PS linkage between nt 14 and 15) [ARC2657] | 0.219 |
| AAUGAUTAGGTTGGGTAGGGTGGTAUCAUU (XNA, 2'-OMe 1-6,25-30, rest DNA) [ARC2828] | 0.33 |
| ACUGCCUAGGTTGGGTAGGGTGGUGGCAGU (XNA, 2'-OMe 1-7,24,25,27-30, rest DNA) [ARC2823] | 9.1 |
